Source: patent publication US20130011401A1

Target: human monomeric APP-tagged SIRPα V domain protein (human) (UniProt P78324)
Assay: BiaCORE SPR; binder captured on Protein A, monovalent APP-tagged SIRPα V domain as analyte (Method 2.1)

Kd: 3000 nM
Substance: CD47-ECD IgG1 Fc fusion protein (from UniProt Q08722 19-141)
